B1: Peptide A42 (peptide)
peptide: AAGSHPSRWAGMARRLLLRSV
notes: alanine-scan variant of the domain I 21-mer
B2: Peptide A43 (peptide)
peptide: AAGSHPSRWAGAGRRLLLRSV
notes: as for B1
B3: Peptide A44 (peptide)
peptide: AAGSHPSRWAAMGRRLLLRSV
notes: as for B1
B4: Peptide A45 (peptide)
peptide: AAGSHPSRAAGMGRRLLLRSV
notes: as for B1
B5: Peptide A46 (peptide)
peptide: AAGSHPSAWAGMGRRLLLRSV
notes: as for B1
B6: Peptide A47 (peptide)
peptide: AAGSHPARWAGMGRRLLLRSV
notes: as for B1
B7: Peptide B2 (peptide)
peptide: PRSTPSLTTKAVLLVRKFQN
B8: Peptide B3 (peptide)
peptide: PRSTPSLTTKAVLLVRKFQ
B9: Peptide B4 (peptide)
peptide: PRSTPSLTTKAVLLVRKF
B10: Peptide B5 (peptide)
peptide: PRSTPSLTTKAVLLVRK
B11: Peptide B6 (peptide)
peptide: PRSTPSLTTKAVLLVR
B12: Peptide B7 (peptide)
peptide: PRSTPSLTTKAVLLV
B13: Peptide B9 (peptide)
peptide: PRSTPSLTTKAVL
B14: Peptide B10 (peptide)
peptide: PRSTPSLTTKAV
B15: Peptide B11 (peptide)
peptide: PRSTPSLTTKA
B16: Peptide B12 (peptide)
peptide: PRSTPSLTTK
B17: Peptide B13 (peptide)
peptide: PRSTPSLTT
B18: Peptide B14 (peptide)
peptide: PRSTPSLT
B19: Peptide B15 (peptide)
peptide: PRSTPSL
notes: also called PRSTPSL
B20: Peptide B16 (peptide)
peptide: PRSTPS
notes: also called PRSTPS
B21: Peptide B18 (peptide)
peptide: RSTPSLTTKAVLLVRKFQNS
B22: Peptide B19 (peptide)
peptide: STPSLTTKAVLLVRKFQNS
B23: Peptide B20 (peptide)
peptide: TPSLTTKAVLLVRKFQNS
B24: Peptide B21 (peptide)
peptide: PSLTTKAVLLVRKFQNS
B25: Peptide B23 (peptide)
peptide: LTTKAVLLVRKFQNS
B26: Peptide B24 (peptide)
peptide: TTKAVLLVRKFQNS
B27: Peptide B27 (peptide)
peptide: KAVLLVRKFQNS
B28: Peptide B28 (peptide)
peptide: AVLLVRKFQNS
B29: Peptide B29 (peptide)
peptide: VLLVRKFQNS
B30: Peptide B30 (peptide)
peptide: LLVRKFQNS
B31: Peptide B31 (peptide)
peptide: LVRKFQNS
B32: Peptide B32 (peptide)
peptide: VRKFQNS
notes: also called VRKFQNS
B33: Peptide E1 (peptide)
peptide: MLTLQTWVVQALFIFLTTESTGEL
B34: Peptide E2 (peptide)
peptide: ALFIFLTTESTGELLDPCGYISPE
B35: Peptide E3 (peptide)
peptide: TGELLDPCGYISPESPVVQLHSNF
B36: Peptide E4 (peptide)
peptide: ISPESPVVQLHSNFTAVCVLKEKC
B37: Peptide E5 (peptide)
peptide: HSNFTAVCVLKEKCMDYFHVNANY
B38: Peptide E6 (peptide)
peptide: KEKCMDYFHVNANYIVWKTNHFTI
B39: Peptide E7 (peptide)
peptide: NANYIVWKTNHFTIPKEQYTIINR
B40: Peptide E8 (peptide)
peptide: HFTIPKEQYTIINRTASSVTFTDI
B41: Peptide E9 (peptide)
peptide: IINRTASSVTFTDIASLNIQLTCN
B42: Peptide E10 (peptide)
peptide: FTDIASLNIQLTCNILTFGQLEQN
B43: Peptide E12 (peptide)
peptide: LEQNVYGITIISGLPPEKPKNLSC
B44: Peptide E13 (peptide)
peptide: ISGLPPEKPKNLSCIVNEGKKMRC
B45: Peptide E14 (peptide)
peptide: NLSCIVNEGKKMRCEWDGGRETHL
B46: Peptide E15 (peptide)
peptide: KMRCEWDGGRETHLETNFTLKSEW
B47: Peptide E16 (peptide)
peptide: ETHLETNFTLKSEWATHKFADCKA
B48: Peptide E17 (peptide)
peptide: KSEWATHKFADCKAKRDTPTSCTV
B49: Peptide E18 (peptide)
peptide: DCKAKRDTPTSCTVDYSTVYFVNI
B50: Peptide E19 (peptide)
peptide: SCTVDYSTVYFVNIEVWVEAENAL

These binders were tested against T1, recombinant human IL-6 (human, UniProt P05231 30-212, labeled with radioactive iodine) (assay: radioiodinated IL-6 on peptide array).
T1 construct: Labeled probe in solution, added to wells that carry the synthetic peptides; also called IL-6 ligand; Interleukin-6
Description: Synthetic peptide arrays were constructed in 96-well microtiter plates in accordance with the method set forth in WO 91/02714 (Saxinger), and used to test the binding of recombinant human IL-6 that had been labeled with radioactive iodine (radiolabeling by standard methods). After incubating the radiolabeled IL-6 ligand in a well with each synthetic peptide, a washing step was performed to remove unbound label, and the relative level of radioactivity remaining in each well of the plate was evaluated to determine the relative affinity of each peptide for IL-6 ligand.

Point of comparison: B15, Counts/minute bound 1240 counts/minute. Against it:
- B1 — higher, 12300 counts/minute
- B2 — higher, 13500 counts/minute
- B3 — higher, 11900 counts/minute
- B4 — higher, 8040 counts/minute
- B5 — higher, 9520 counts/minute
- B6 — higher, 11300 counts/minute
- B7 — higher, 7930 counts/minute
- B8 — higher, 7080 counts/minute
- B9 — higher, 4690 counts/minute
- B10 — higher, 3960 counts/minute
- B11 — higher, 4360 counts/minute
- B12 — higher, 3400 counts/minute
- B13 — higher, 1400 counts/minute
- B14 — lower, 1220 counts/minute
- B16 — higher, 1310 counts/minute
- B17 — lower, 1050 counts/minute
- B18 — lower, 930 counts/minute
- B19 — lower, 985 counts/minute
- B20 — lower, 1020 counts/minute
- B21 — higher, 13000 counts/minute
- B22 — higher, 12200 counts/minute
- B23 — higher, 12900 counts/minute
- B24 — higher, 13300 counts/minute
- B25 — higher, 12200 counts/minute
- B26 — higher, 7010 counts/minute
- B27 — higher, 5600 counts/minute
- B28 — higher, 9070 counts/minute
- B29 — higher, 9100 counts/minute
- B30 — higher, 7200 counts/minute
- B31 — higher, 2520 counts/minute
- B32 — lower, 1180 counts/minute

Target: T1, recombinant human IL-6
Assay: radioiodinated IL-6 on peptide array
Remark: another data set of the same source

Point of comparison: B35, Counts/minute bound 1300 counts/minute. Against it:
- B33 — higher, 3360 counts/minute
- B34 — higher, 1530 counts/minute
- B36 — higher, 1500 counts/minute
- B37 — lower, 1290 counts/minute
- B38 — higher, 1440 counts/minute
- B39 — higher, 1330 counts/minute
- B40 — lower, 1140 counts/minute
- B41 — higher, 1630 counts/minute
- B42 — higher, 3380 counts/minute
- B43 — higher, 1670 counts/minute
- B44 — lower, 1200 counts/minute
- B45 — lower, 1170 counts/minute
- B46 — higher, 1570 counts/minute
- B47 — lower, 1040 counts/minute
- B48 — higher, 1410 counts/minute
- B49 — higher, 1550 counts/minute
- B50 — higher, 3320 counts/minute

— US20040092720A1 (US Dept. of Health and Human Services, published 2004)
